How the values were obtained:
[1] = biological target: Vtc4* (Vtc4(1–487), SPX and TTM domains of Vtc4 without the transmembrane domain) (S. cerevisiae) (UniProt P47075); test: MST; as a1, MST buffer supplemented with 2.5 mM 1,5-IP8
[2] = biological target: Vtc4* (Vtc4(1–487), SPX and TTM domains of Vtc4 without the transmembrane domain) (S. cerevisiae) (UniProt P47075); test: MST; as a1, MST buffer supplemented with 2.5 mM IP6
[3] = biological target: Vtc4* (Vtc4(1–487), SPX and TTM domains of Vtc4 without the transmembrane domain) (S. cerevisiae) (UniProt P47075); test: MST; as a1, MST buffer supplemented with 2.5 mM natural 5-IP7
[4] = biological target: Vtc4* (Vtc4(1–487), SPX and TTM domains of Vtc4 without the transmembrane domain) (S. cerevisiae) (UniProt P47075); test: MST; conditions: domain or fragment

Sequence of Vtc4* (Vtc4(1–487), SPX and TTM domains of Vtc4 without the transmembrane domain) (S. cerevisiae) (P47075 1-487): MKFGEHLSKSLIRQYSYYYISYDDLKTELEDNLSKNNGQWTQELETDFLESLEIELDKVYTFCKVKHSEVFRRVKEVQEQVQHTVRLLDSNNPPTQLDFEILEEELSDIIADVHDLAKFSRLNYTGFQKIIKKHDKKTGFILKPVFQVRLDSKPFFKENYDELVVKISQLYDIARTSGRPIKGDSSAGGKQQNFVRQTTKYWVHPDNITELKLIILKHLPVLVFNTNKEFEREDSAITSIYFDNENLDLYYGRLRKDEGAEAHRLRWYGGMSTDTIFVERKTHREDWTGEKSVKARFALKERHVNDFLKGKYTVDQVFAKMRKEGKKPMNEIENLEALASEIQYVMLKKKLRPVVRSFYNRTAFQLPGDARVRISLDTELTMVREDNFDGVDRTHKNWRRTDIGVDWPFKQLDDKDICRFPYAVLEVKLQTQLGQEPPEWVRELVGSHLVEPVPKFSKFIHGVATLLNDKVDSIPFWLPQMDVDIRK
Sequence of SPX2∆α1 (SPX2 with helix α1 truncated) (P43585 1-151): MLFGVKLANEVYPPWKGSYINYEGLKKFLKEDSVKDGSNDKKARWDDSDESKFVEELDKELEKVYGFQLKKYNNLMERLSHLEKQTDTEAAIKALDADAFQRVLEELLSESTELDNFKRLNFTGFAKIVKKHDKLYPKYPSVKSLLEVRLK

| Substance | fold decrease of affinity with 2.5 mM 1,5-IP8 against no ligand [1] [fold] | fold decrease of affinity with 2.5 mM IP6 against no ligand [2] [fold] | fold decrease of affinity with 2.5 mM 5-IP7 against no ligand [3] [fold] | Kd [4] [µM] |
| --- | --- | --- | --- | --- |
| SPX2 (SPX domain of Vtc2, Vtc2(1–201)) (from UniProt P43585 1-201) (domain or fragment) | > 100000 | > 20 | 85 |  |
| SPX2∆α1 (SPX2 with helix α1 truncated) |  |  |  | 1000 |

Reference: PMC10167327
